Biological target: T1, heat shock factor (HSF) (UniProt P22813 P22813:1-691)
T1 sequence: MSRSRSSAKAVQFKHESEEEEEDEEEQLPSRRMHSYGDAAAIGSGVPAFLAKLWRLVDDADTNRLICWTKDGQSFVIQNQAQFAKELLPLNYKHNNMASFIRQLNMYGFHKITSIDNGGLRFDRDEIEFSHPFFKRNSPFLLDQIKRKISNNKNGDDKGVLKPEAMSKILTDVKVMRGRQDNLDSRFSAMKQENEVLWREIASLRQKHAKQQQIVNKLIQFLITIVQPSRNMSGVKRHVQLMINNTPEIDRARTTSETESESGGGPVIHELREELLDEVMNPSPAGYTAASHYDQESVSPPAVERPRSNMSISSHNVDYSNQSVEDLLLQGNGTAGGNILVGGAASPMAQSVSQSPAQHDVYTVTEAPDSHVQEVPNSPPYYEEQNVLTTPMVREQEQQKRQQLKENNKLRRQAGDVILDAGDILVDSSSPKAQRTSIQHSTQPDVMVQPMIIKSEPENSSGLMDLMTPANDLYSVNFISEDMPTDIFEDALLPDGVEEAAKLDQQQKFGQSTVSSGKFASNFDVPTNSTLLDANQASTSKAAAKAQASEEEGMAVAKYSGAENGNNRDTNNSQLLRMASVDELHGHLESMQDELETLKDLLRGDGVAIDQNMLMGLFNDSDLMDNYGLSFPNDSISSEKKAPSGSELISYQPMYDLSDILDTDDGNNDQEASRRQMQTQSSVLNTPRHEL
Assay: EMSA; estimated from EMSA data; construct not given
Conditions: tags: fusion construct from E. coli (GST, His or MBP; exact one not specified for this assay); chain copies: 3

B1: RA1-HSF (14-1) (ssRNA)
RNA: GGGAGAAUUCAACUGCCAUCUAGGCAUCGCGAUACAAAAUUAAGUUGAACGCGAGUUCUCCAUCUAGUACUACAAGCUUCUGGACUCGAU
  Kd: 20 nM

Reference: patent US20040053310, “Exhaustive selection of RNA aptamers against complex targets” (published 2004)
